{
  "source": "patent US7666582B2",
  "about": "“IdeS, an IgG-degrading enzyme of Streptococcus pyogenes” (Hansa Medical Research AB, priority 2001, dated 2010)",
  "molecules": {"B1": {"name": "IdeS: new extracellular cysteine protease produced by S. pyogenes, highly specific for IgG; SEQ ID NO: 1 (protein)", "chain": "DSFSANQEIRYSEVTPYHVTSVWTKGVTPPANFTQGEDVFHAPYVANQGWYDITKTFNGKDDLLCGAATAGNMLHWWFDQNKDQIKRYLEEHPEKQKINFNGEQMFDVKEAIDTKNHQLDSKLFEYFKEKAFPYLSTKHLGVFPDHVIDMFINGYRLSLTNHGPTPVKEGSKDPRGGIFDAVFTRGDQSKLLTSRHDFKEKNLKEISDLIKKELTEGKALGLSHTYANVRINHVINLWGADFDSNGNLKAIYVTDSDSNASIGMKKYFVGVNSAGKVAISAKEIKEDNIGAQVLGLFTLSTGQDSWNQTN", "modifications": "S. Pyogenes"}},
  "assay_type_in_all_cases": "biochemical",
  "key": {"[1]": {"molecular_target": "T1, cystatin C (Mus musculus, UniProt P21460)", "T1 sequence (P21460 21-140)": "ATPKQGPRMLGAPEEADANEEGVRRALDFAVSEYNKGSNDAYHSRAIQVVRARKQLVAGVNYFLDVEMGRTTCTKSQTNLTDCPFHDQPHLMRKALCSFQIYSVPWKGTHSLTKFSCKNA", "assay": "IdeS incubation with mouse cystatin C"}, "[2]": {"molecular_target": "T2, fibrinogen (Homo sapiens, UniProt P02671+P02675+P02679)", "T2 sequence (P02671 20-629 limits assumed)": "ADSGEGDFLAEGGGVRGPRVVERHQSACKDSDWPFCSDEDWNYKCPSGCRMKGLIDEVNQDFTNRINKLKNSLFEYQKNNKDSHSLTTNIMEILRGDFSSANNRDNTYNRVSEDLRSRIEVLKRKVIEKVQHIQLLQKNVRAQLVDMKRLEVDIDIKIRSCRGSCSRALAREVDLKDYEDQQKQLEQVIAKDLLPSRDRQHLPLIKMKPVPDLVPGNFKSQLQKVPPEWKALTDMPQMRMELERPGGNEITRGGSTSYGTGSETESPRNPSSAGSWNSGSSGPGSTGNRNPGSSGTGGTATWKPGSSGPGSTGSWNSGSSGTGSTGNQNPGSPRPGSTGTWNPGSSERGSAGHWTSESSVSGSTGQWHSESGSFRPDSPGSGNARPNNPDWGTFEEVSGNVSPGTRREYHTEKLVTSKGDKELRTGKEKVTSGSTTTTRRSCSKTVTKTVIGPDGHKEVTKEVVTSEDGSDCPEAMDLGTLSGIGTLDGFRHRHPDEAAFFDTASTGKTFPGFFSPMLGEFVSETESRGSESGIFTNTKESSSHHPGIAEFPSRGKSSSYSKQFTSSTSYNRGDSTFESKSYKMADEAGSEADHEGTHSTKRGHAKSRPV", "T2 sequence (P02675 31-491)": "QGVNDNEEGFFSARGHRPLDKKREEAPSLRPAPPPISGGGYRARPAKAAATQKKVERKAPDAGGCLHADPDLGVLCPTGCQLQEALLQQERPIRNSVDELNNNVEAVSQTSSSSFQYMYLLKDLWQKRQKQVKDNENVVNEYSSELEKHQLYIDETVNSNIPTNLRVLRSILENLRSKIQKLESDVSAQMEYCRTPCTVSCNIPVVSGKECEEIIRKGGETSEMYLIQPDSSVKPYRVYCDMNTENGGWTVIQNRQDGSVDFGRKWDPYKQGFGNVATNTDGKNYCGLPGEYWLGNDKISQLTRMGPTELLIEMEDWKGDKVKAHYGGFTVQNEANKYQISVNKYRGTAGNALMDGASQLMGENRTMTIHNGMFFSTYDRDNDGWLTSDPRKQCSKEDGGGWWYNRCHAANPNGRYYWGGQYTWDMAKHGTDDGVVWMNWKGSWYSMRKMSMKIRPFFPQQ", "T2 sequence (P02679 27-453)": "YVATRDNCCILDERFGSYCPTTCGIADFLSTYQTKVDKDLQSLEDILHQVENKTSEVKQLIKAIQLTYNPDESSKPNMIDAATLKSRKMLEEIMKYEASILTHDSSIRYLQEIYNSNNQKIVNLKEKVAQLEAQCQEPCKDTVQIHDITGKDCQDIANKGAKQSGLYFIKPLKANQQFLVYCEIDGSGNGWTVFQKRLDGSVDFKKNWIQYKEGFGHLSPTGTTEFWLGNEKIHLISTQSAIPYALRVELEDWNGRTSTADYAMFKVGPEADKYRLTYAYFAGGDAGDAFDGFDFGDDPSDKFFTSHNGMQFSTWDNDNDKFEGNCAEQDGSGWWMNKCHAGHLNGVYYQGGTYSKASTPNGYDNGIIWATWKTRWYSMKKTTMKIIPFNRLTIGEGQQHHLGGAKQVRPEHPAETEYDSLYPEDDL", "assay": "IdeS cleavage of other human proteins: fibrinogen"}, "[3]": {"assay": "IdeS activity towards peptides: Z-LVG-CHN2", "details": "excess IdeS"}, "[4]": {"molecular_target": "fibronectin (Homo sapiens, UniProt P02751)", "sequence (P02751 32-2477)": "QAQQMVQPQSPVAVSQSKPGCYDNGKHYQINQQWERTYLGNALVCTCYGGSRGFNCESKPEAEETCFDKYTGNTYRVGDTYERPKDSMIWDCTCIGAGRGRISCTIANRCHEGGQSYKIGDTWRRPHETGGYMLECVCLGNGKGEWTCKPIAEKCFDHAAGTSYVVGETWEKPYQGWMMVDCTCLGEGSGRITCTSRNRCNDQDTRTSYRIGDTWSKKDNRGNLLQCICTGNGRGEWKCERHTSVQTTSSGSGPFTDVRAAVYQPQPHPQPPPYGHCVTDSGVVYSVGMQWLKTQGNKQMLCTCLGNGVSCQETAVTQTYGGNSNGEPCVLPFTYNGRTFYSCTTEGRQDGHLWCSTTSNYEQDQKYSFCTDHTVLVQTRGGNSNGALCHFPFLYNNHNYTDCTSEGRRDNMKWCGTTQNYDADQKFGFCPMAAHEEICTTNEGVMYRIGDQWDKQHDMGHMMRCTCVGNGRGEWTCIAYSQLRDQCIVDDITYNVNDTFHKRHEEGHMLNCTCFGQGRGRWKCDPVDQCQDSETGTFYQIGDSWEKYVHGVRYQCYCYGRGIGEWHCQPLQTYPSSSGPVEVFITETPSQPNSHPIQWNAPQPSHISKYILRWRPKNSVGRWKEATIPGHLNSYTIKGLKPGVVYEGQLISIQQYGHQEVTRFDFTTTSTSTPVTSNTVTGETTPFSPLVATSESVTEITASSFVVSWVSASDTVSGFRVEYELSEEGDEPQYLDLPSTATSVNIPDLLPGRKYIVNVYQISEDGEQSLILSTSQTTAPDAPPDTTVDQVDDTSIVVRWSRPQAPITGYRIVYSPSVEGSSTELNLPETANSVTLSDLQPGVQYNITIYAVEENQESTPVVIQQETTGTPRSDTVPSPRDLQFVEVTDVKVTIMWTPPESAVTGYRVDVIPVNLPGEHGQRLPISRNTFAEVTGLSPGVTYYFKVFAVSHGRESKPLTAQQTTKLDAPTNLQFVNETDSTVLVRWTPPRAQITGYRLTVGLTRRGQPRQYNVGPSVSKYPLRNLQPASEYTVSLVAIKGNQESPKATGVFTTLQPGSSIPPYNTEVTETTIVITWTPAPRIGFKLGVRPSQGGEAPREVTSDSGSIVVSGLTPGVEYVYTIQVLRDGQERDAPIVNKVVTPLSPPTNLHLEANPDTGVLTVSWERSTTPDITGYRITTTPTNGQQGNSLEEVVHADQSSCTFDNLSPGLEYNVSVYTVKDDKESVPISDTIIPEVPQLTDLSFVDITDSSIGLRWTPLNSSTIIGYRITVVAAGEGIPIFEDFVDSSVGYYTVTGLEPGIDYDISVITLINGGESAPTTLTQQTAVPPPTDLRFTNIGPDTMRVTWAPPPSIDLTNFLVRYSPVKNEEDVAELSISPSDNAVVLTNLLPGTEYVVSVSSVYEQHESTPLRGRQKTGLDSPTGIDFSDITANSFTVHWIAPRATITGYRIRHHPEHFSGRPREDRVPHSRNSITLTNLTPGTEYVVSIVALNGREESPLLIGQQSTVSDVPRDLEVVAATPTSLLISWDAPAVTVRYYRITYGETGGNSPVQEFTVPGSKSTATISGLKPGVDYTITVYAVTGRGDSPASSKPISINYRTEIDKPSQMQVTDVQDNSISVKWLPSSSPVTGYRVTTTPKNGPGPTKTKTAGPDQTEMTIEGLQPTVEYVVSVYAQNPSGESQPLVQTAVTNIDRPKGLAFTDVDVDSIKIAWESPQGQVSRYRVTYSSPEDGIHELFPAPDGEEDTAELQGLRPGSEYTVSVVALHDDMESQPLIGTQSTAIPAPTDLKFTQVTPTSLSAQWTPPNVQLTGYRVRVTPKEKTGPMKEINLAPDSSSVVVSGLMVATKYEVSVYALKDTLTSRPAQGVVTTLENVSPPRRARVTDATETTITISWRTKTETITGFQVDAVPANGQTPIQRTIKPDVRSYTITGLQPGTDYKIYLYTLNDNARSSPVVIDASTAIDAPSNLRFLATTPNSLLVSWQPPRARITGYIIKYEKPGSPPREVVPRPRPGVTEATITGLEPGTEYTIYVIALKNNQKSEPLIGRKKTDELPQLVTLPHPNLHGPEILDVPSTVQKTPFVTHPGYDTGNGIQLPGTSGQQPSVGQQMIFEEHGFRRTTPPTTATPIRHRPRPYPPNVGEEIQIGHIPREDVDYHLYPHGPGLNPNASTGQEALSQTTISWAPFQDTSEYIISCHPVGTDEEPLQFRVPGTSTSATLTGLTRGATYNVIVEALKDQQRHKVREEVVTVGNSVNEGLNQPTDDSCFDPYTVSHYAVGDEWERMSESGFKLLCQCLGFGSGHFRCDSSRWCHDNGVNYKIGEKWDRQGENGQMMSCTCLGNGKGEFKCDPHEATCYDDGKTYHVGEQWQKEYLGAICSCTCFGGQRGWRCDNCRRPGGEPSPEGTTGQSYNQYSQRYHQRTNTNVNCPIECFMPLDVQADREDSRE", "assay": "IdeS cleavage of other human proteins: fibronectin"}, "[5]": {"molecular_target": "T3, cystatin C (Rattus norvegicus, UniProt P14841)", "T3 sequence (P14841 21-140)": "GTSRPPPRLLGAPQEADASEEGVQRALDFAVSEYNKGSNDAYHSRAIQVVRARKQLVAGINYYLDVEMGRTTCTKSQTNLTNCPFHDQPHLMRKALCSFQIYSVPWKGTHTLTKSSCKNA", "assay": "IdeS incubation with rat cystatin C"}, "[6]": {"test_system": "human IgD", "assay": "IdeS cleavage assay of Ig classes: IgD", "details": "purified IdeS, 2 h at 37° C.", "protocol": "For standard IdeS activity assays, bacteria cultures were grown to OD620=0.4. Bacteria were pelleted by centrifugation and supernatants were sterile-filtered through a 0.22 μm membrane (Millipore) prior to use. For activity assays, […] of supernatant were mixed with 5 μl of IgG (10 mg/ml, Sigma) and the volume was adjusted with PBS to 100 μl. For screening of IdeS activity in different S. progenes strains, E64 was added to a final concentration of 40 μM. The mixtures were incubated at 37° C. for 30 min and samples were analyzed by 12% SDS-PAGE. For cleavage assays of different classes of Ig, purified IdeS (0.3 μg/ml) was incubated with 3 μg Ig for 2 h at 37° C., and analyzed by 12% SDS-PAGE analysis."}},
  "data": [
    {"molecule": "B1", "values": [
      {"measurement": "cleavage products, cystatin C from mouse", "setting": "[1]", "value": "No cleavage products could be observed"},
      {"measurement": "cleavage products, fibrinogen", "setting": "[2]", "value": "No cleavage products could be detected"},
      {"measurement": "cleavage of Z-LVG-CHN2", "setting": "[3]", "value": "Neither was the synthetic peptide Z-LVG-CHN2, which inhibits IdeS activity, cleaved"},
      {"measurement": "cleavage products, fibronectin", "setting": "[4]", "value": "No cleavage products could be detected"},
      {"measurement": "cleavage products, cystatin C from rat", "setting": "[5]", "value": "No cleavage products could be observed"},
      {"measurement": "degradation of human IgD", "setting": "[6]", "value": "only IgG was degraded"}
    ]}
  ]
}
